In patent US20240207433A1:

Biological target: human alpha-enolase protein (ENO-1) (human) (UniProt P06733)
Assay: cell-based or functional assay

UniProt P06733, sequence (P06733 2-434): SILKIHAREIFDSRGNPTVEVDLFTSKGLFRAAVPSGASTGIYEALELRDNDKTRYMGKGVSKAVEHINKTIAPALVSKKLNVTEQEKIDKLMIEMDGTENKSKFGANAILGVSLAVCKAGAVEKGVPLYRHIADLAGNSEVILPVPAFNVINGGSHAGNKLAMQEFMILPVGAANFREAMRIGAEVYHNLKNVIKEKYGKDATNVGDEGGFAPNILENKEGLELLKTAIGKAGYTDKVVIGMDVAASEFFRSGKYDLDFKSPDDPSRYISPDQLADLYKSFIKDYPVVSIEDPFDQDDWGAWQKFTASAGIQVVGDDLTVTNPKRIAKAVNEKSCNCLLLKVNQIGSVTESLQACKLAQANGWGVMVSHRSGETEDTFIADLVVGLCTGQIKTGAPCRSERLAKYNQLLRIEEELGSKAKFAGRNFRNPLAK

## HuL001-SMCC-DM1
  IC50 of cytotoxicity (CCK-8), A549, IL-6: 0.0112 µM
  IC50 of cytotoxicity (CCK-8), A549, MCP-1: 0.0121 µM
  IC50 of cytotoxicity (CCK-8), A549, TGF-β: 0.0082 µM
  IC50 of cytotoxicity (CCK-8), A549, untreated: 0.056 µM
  IC50 of cytotoxicity (CCK-8), DB, IL-6: 0.0058 µM
  IC50 of cytotoxicity (CCK-8), DB, MCP-1: 0.0041 µM
  IC50 of cytotoxicity (CCK-8), DB, TGF-β: 0.0051 µM
  IC50 of cytotoxicity (CCK-8), DB, untreated: 0.0055 µM
  IC50 of cytotoxicity (CCK-8), GA-10, IL-6: 0.0266 µM
  IC50 of cytotoxicity (CCK-8), GA-10, MCP-1: 0.0256 µM
  IC50 of cytotoxicity (CCK-8), GA-10, TGF-β: 0.0228 µM
  IC50 of cytotoxicity (CCK-8), GA-10, untreated: 0.0378 µM
  IC50 of cytotoxicity (CCK-8), HT, IL-6: 0.0066 µM
  IC50 of cytotoxicity (CCK-8), HT, MCP-1: 0.0076 µM
  IC50 of cytotoxicity (CCK-8), HT, TGF-β: 0.0061 µM
  IC50 of cytotoxicity (CCK-8), HT, untreated: 0.0073 µM
  IC50 of cytotoxicity (CCK-8), MCF-7, IL-6: 0.0386 µM
  IC50 of cytotoxicity (CCK-8), MCF-7, MCP-1: 0.0362 µM
  IC50 of cytotoxicity (CCK-8), MCF-7, TGF-β: 0.0535 µM
  IC50 of cytotoxicity (CCK-8), MCF-7, untreated: 0.0749 µM
  IC50 of cytotoxicity (CCK-8), MDA-MB-175, IL-6: 0.0451 µM
  IC50 of cytotoxicity (CCK-8), MDA-MB-175, MCP-1: 0.0405 µM
  IC50 of cytotoxicity (CCK-8), MDA-MB-175, TGF-β: 0.0383 µM
  IC50 of cytotoxicity (CCK-8), MDA-MB-175, untreated: 0.0764 µM
  IC50 of cytotoxicity (CCK-8), MDA-MB-231, IL-6: 0.0346 µM
  IC50 of cytotoxicity (CCK-8), MDA-MB-231, MCP-1: 0.0224 µM
  IC50 of cytotoxicity (CCK-8), MDA-MB-231, TGF-β: 0.0242 µM
  IC50 of cytotoxicity (CCK-8), MDA-MB-231, untreated: 0.0689 µM
  IC50 of cytotoxicity (CCK-8), MDA-MB-453, IL-6: 0.0228 µM
  IC50 of cytotoxicity (CCK-8), MDA-MB-453, MCP-1: 0.0247 µM
  IC50 of cytotoxicity (CCK-8), MDA-MB-453, TGF-β: 0.0166 µM
  IC50 of cytotoxicity (CCK-8), MDA-MB-453, untreated: 0.0398 µM
  IC50 of cytotoxicity (CCK-8), PANC-1, IL-6: 0.134 µM
  IC50 of cytotoxicity (CCK-8), PANC-1, MCP-1: 0.11 µM
  IC50 of cytotoxicity (CCK-8), PANC-1, TGF-β: 0.116 µM
  IC50 of cytotoxicity (CCK-8), PANC-1, untreated: 0.174 µM
  IC50 of cytotoxicity (CCK-8), Raji, IL-6: 0.0171 µM
  IC50 of cytotoxicity (CCK-8), Raji, MCP-1: 0.0217 µM
  IC50 of cytotoxicity (CCK-8), Raji, TGF-β: 0.0186 µM
  IC50 of cytotoxicity (CCK-8), Raji, untreated: 0.0322 µM
  IC50 of cytotoxicity (CCK-8), SU-DHL-4, IL-6: 0.0083 µM
  IC50 of cytotoxicity (CCK-8), SU-DHL-4, MCP-1: 0.0076 µM
  IC50 of cytotoxicity (CCK-8), SU-DHL-4, TGF-β: 0.0074 µM
  IC50 of cytotoxicity (CCK-8), SU-DHL-4, untreated: 0.00765 µM
  IC50 of cytotoxicity (CCK-8), Toledo, IL-6: 0.0114 µM
  IC50 of cytotoxicity (CCK-8), Toledo, MCP-1: 0.0081 µM
  IC50 of cytotoxicity (CCK-8), Toledo, TGF-β: 0.0098 µM
  IC50 of cytotoxicity (CCK-8), Toledo, untreated: 0.008 µM
  IC50 of cytotoxicity (CCK-8), U937, IL-6: 0.0071 µM
  IC50 of cytotoxicity (CCK-8), U937, MCP-1: 0.0097 µM
  IC50 of cytotoxicity (CCK-8), U937, TGF-β: 0.0075 µM
  IC50 of cytotoxicity (CCK-8), U937, untreated: 0.075 µM
